Assay results as given in paper PMC6469932 (Biochemistry, 2018).

B1: SmGhrB, glyoxylate/hydroxypyruvate reductase of subfamily GHRB from Sinorhizobium meliloti 1021 (enzyme, UniProt Q92LZ4 1-322, looked up)
chain: MSRPRILVPGKINPRVLERLPEMFETVRIERADAALVTADMRDVSGIAVSGKLPVPLMDAFPSLEIVANFGVGYDGVDVSRAAARGIVVTNTPDVLTEEVADTAIGLLLNTLRLLPQAEQWLRQGRWVREGAFPLSPLSLRGRTVGLFGLGRIGLAIARRLEAFGVSIAYHTRTPREGLGFTYHPTLVGMAEAVDTLIVIVPGTASTLKAVNADVLSALGPKGVLINVGRGSTVDEAALVTALQNGTIAGAGLDVFENEPNVPEALLSFPNVSLLPHVASASVVTRNAMSDLVVDNLKAWFSTGEALTPVAETPFRRRAIQN
B2: SmGhrA, glyoxylate/hydroxypyruvate reductase of subfamily GHRA from Sinorhizobium meliloti 1021 (enzyme, UniProt Q92T34 1-319, looked up)
chain: MPAKSPVIVDLKFIPEEVEAALAGAFPGREVIDLADPAHQERDLSGIDYAVVWKSAPDLFSRAPDLKVVFSGGAGVDHVLTLPGLPDVPLVRFVDRTLTTRMSEWVMMQCLLHLRQHRAYEALAKKHEWRDLSQPEAADVTVGIMGMGVLGQDAARKLAAMGFKVIGWSRSKRVIEGVETYDAAGLDAFLGRTDFLVGLLPLTPDTRGIFNAALFAKLSRNGPFGAPVFINAGRGGSQVEADILECLDSGVLGGASLDVFEREPLSPESRFWDMPNVYVTPHVAASSDVRALFVHVEHQIARFESGLPLEHVVDKVAGY

How the values were obtained:
purified protein [1] = substrate: O=C(O)C(=O)Cc1ccccc1; assay: purified protein; format: biochemical, Sinorhizobium meliloti; details: 0.4 mM NADPH, 150 mM NaCl, 150 mM Tris-HCl pH 7.5, 25 °C
purified protein [2] = substrate: O=C(O)C(=O)[C@@H](O)[C@H](O)[C@H](O)CO; assay: purified protein; format: biochemical, Sinorhizobium meliloti; details: 0.4 mM NADPH, 150 mM NaCl, 150 mM Tris-HCl pH 7.5, 25 °C
crystal structure = biological target: the molecule itself; assay: crystal structure
purified protein [3] = substrate: CC(=O)C(=O)O; assay: purified protein; format: biochemical, Sinorhizobium meliloti; details: 0.4 mM NADPH, 150 mM NaCl, 150 mM Tris-HCl pH 7.5, 25 °C
purified protein [4] = substrate: O=C(O)C(=O)CO; assay: purified protein; format: biochemical, Sinorhizobium meliloti; details: 0.4 mM NADPH, 150 mM NaCl, 150 mM Tris-HCl pH 7.5, 25 °C

Protein	K0.5 (purified protein [1])	kcat/Km (purified protein [1])	K0.5 (purified protein [2])	kcat/Km (purified protein [2])	stoichiometry N (crystal structure)	K0.5 (purified protein [3])	kcat/Km (purified protein [3])	K0.5 (purified protein [4])	kcat/Km (purified protein [4])
B1	5.59 ± 0.92 mM	372 ± 38 M⁻¹ s⁻¹	11.0 ± 2.0 mM	935 ± 84 M⁻¹ s⁻¹	2	–	–	–	–
B2	6.58 ± 0.73 mM	267 ± 18 M⁻¹ s⁻¹	–	–	2	9.69 ± 0.80 mM	57.3 ± 3.4 M⁻¹ s⁻¹	9.35 ± 0.86 mM	1200 ± 61 M⁻¹ s⁻¹
